Results from the supplement of paper PMC10567573.

B1: KRT34 (parent)
chain: PTVDLNQVLNETRSQYEALVETNR

Variants of: B1
Experiment: protein stability index of a GFP-peptide fusion (GPS, HEK-293T) (PSI 1-6); higher = more stable
Conditions: c terminus: a fixed tail appended
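Also: lentivirally expressed fusions sorted by FACS into six bins by GFP to DsRed ratio, PSI derived from sequencing read proportions per bin multiplied by bin number.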

Compared with PTVDLNQVLNETRSQYEALVETIR, PTVDLNQVLNETRSQYEALVETMR is higher in protein stability index: 2.79 for the first, 3.12 for the second.

First: PTVDLNQVLNETRSQYEALVETLR
Second: PTVDLNQVLNETRSQYEALVETDR
The protein stability index of the first is lower: 2.41 for the first, 5.04 for the second.

Compared with PTVDLNQVLNETRSQYEALVETKR, PTVDLNQVLNETRSQYEALVETPR is higher in protein stability index: 3.95 for the first, 4.04 for the second.

First: PTVDLNQVLNETRSQYEALVETCR
Second: PTVDLNQVLNETRSQYEALVETFR
The protein stability index of the first is lower: 3.47 for the first, 3.71 for the second.

Compared with PTVDLNQVLNETRSQYEALVETHR, PTVDLNQVLNETRSQYEALVETAR is lower in protein stability index: 4.05 for the first, 4.03 for the second.

First: PTVDLNQVLNETRSQYEALVETGR
Second: PTVDLNQVLNETRSQYEALVETER
The protein stability index of the first is lower: 4.04 for the first, 5.16 for the second.

First: PTVDLNQVLNETRSQYEVLVETNR
Second: PTVDLNQVLNETRSQYEWLVETNR
The protein stability index of the first is higher: 4.01 for the first, 3.5 for the second.

First: PTVDLNQVLNETRSQYETLVETNR
Second: PTVDLNQVLNETRSQYEYLVETNR
The protein stability index of the first is higher: 3.81 for the first, 3.6 for the second.

Going from PTVDLNQVLNETRSQYERLVETNR to PTVDLNQVLNETRSQYESLVETNR, the protein stability index rises from 2.31 to 3.32.

First: PTVDLNQVLNETRSQYEQLVETNR
Second: PTVDLNQVLNETRSQYEALVECNR
The protein stability index of the first is higher: 3.78 for the first, 3.62 for the second.

Going from PTVDLNQVLNETRSQYEALVEHNR to PTVDLNQVLNETRSQYEALVENNR, the protein stability index rises from 3.99 to 4.39.

First: PTVDLNQVLNETRSQYEALVERNR
Second: PTVDLNQVLNETRSQYEALVEWNR
The protein stability index of the first is higher: 4.46 for the first, 4.02 for the second.

Going from PTVDLNQVLNETRSQYEALVEDNR to PTVDLNQVLNETRSQYEALVEFNR, the protein stability index falls from 4.58 to 3.78.

Going from PTVDLNQVLNETRSQYEALVEMNR to PTVDLNQVLNETRSQYEALVESNR, the protein stability index rises from 3.19 to 4.36.

First: PTVDLNQVLNETRSQYEALVEKNR
Second: PTVDLNQVLNETRSQYEALVEYNR
The protein stability index of the first is lower: 3.66 for the first, 4.23 for the second.

Compared with PTVDLNQVLNETRSQYEALVEINR, PTVDLNQVLNETRSQYEALVEGNR is higher in protein stability index: 1.68 for the first, 4.41 for the second.

First: PTVDLNQVLNETRSQYEALVEANR
Second: PTVDLNQVLNETRSQYEALVEVNR
The protein stability index of the first is higher: 4.01 for the first, 1.71 for the second.

Compared with PTVDLNQVLNETRSQYEALVELNR, PTVDLNQVLNETRSQYEALVEPNR is higher in protein stability index: 2.54 for the first, 4.28 for the second.

Going from PTVDLNQVLNETRSQYEALVEENR to PTVDLNQVLNETRSQYEALVVTNR, the protein stability index falls from 4.11 to 3.49.

Going from PTVDLNQVLNETRSQYEALVYTNR to PTVDLNQVLNETRSQYEALVITNR, the protein stability index falls from 3.62 to 3.23.

Going from PTVDLNQVLNETRSQYEALVDTNR to PTVDLNQVLNETRSQYEALVNTNR, the protein stability index rises from 3.64 to 3.83.

First: PTVDLNQVLNETRSQYEALVCTNR
Second: PTVDLNQVLNETRSQYEALVMTNR
The protein stability index of the first is lower: 3.55 for the first, 3.92 for the second.

First: PTVDLNQVLNETRSQYEALVQTNR
Second: PTVDLNQVLNETRSQYEALVSTNR
The protein stability index of the first is higher: 4.3 for the first, 4.02 for the second.

First: PTVDLNQVLNETRSQYEALVTTNR
Second: PTVDLNQVLNETRSQYEALVWTNR
The protein stability index of the first is higher: 3.74 for the first, 2.62 for the second.

Going from PTVDLNQVLNETRSQYEALVATNR to PTVDLNQVLNETRSQYEALVHTNR, the protein stability index falls from 3.84 to 3.76.

Going from PTVDLNQVLNETRSQYEALVKTNR to PTVDLNQVLNETRSQYEALVGTNR, the protein stability index falls from 4.3 to 4.06.

Compared with PTVDLNQVLNETRSQYEALVLTNR, PTVDLNQVLNETRSQYEALVPTNR is higher in protein stability index: 3.56 for the first, 4.19 for the second.

First: PTVDLNQVLNETRSQYEALVFTNR
Second: PTVDLNQVLNETRSQYEALVRTNR
The protein stability index of the first is lower: 2.74 for the first, 3.62 for the second.

Going from PTVDLNQVLNETRSQYEATVETNR to PTVDLNQVLNETRSQYEAHVETNR, the protein stability index rises from 4.5 to 4.75.

First: PTVDLNQVLNETRSQYEADVETNR
Second: PTVDLNQVLNETRSQYEASVETNR
The protein stability index of the first is higher: 5.03 for the first, 4.99 for the second.

First: PTVDLNQVLNETRSQYEAAVETNR
Second: PTVDLNQVLNETRSQYEACVETNR
The protein stability index of the first is lower: 4.47 for the first, 4.72 for the second.

First: PTVDLNQVLNETRSQYEAKVETNR
Second: PTVDLNQVLNETRSQYEARVETNR
The protein stability index of the first is higher: 5.17 for the first, 4.81 for the second.

Going from PTVDLNQVLNETRSQYEAYVETNR to PTVDLNQVLNETRSQYEAWVETNR, the protein stability index falls from 4.39 to 3.98.

Compared with PTVDLNQVLNETRSQYEAEVETNR, PTVDLNQVLNETRSQYEAPVETNR is lower in protein stability index: 5.63 for the first, 4.7 for the second.

Going from PTVDLNQVLNETRSQYEAQVETNR to PTVDLNQVLNETRSQYEAMVETNR, the protein stability index falls from 4.63 to 3.84.

Compared with PTVDLNQVLNETRSQYEAFVETNR, PTVDLNQVLNETRSQYEAVVETNR is higher in protein stability index: 3.51 for the first, 4.44 for the second.

Going from PTVDLNQVLNETRSQYEAGVETNR to PTVDLNQVLNETRSQYEAIVETNR, the protein stability index falls from 5.03 to 4.16.

First: PTVDLNQVLNETRSQYEANVETNR
Second: PTVDLNQVLNETRSQYEALAETNR
The protein stability index of the first is higher: 5.01 for the first, 2.68 for the second.

Compared with PTVDLNQVLNETRSQYEALRETNR, PTVDLNQVLNETRSQYEALDETNR is lower in protein stability index: 4.9 for the first, 4.71 for the second.

Compared with PTVDLNQVLNETRSQYEALNETNR, PTVDLNQVLNETRSQYEALKETNR is higher in protein stability index: 4.42 for the first, 4.86 for the second.

Going from PTVDLNQVLNETRSQYEALSETNR to PTVDLNQVLNETRSQYEALMETNR, the protein stability index falls from 3.98 to 3.58.

First: PTVDLNQVLNETRSQYEALPETNR
Second: PTVDLNQVLNETRSQYEALFETNR
The protein stability index of the first is higher: 4.91 for the first, 3.64 for the second.

Compared with PTVDLNQVLNETRSQYEALTETNR, PTVDLNQVLNETRSQYEALGETNR is higher in protein stability index: 4.25 for the first, 4.44 for the second.

Compared with PTVDLNQVLNETRSQYEALYETNR, PTVDLNQVLNETRSQYEALQETNR is higher in protein stability index: 4.09 for the first, 4.5 for the second.

First: PTVDLNQVLNETRSQYEALEETNR
Second: PTVDLNQVLNETRSQYEALWETNR
The protein stability index of the first is lower: 3.52 for the first, 3.83 for the second.

First: PTVDLNQVLNETRSQYEALLETNR
Second: PTVDLNQVLNETRSQYEALCETNR
The protein stability index of the first is higher: 4.04 for the first, 3.68 for the second.

Compared with PTVDLNQVLNETRSQYEALHETNR, PTVDLNQVLNETRSQYEALIETNR is lower in protein stability index: 4.77 for the first, 4 for the second.
